# Data reported in patent US20060067886A1, “Gastrin receptor-avid peptide conjugates” (priority 1997, published 2006).
# Key:
# [1] = test system: PC-3 human tumor xenografts; experiment: in vivo
# Description: (§1) In vivo pharmacokinetic studies in human tumor bearing SCID mice. […] The xenograft models were produced by bilateral flank inoculation of 5×10^6 cells (PC-3 or MDA-MB-231 cells) per site. Four to six weeks post inoculation, palpable tumors were observed. At this point, the mice were injected with 4 μCi of the complex in […] of isotonic saline via the tail vein. The mice were euthanized and tissues and organs were excised from the animals at selected times post-injection (p.i.), including 15 minutes, 30 minutes, 1 hour, 4 hours, 24 hours, 48 hours, and 72 hours p.i. Subsequently, the tissues and organs were weighed and counted in a NaI well counter and the percent injected dose (% ID) and % ID/g of each organ or tissue calculated.
# (§2) The mice were injected with 4 μCi of the complex in 100 μL of isotonic saline via the tail vein. The mice were euthanized by cervical dislocation. Tissues and organs were excised from the animals following at 1 hour, 4 hour, and 24 hours post-injection (p.i.). Subsequently, the tissues and organs were weighed and counted in a NaI well counter and the percent injected dose (% ID) and % ID/g of each organ or tissue calculated.
# [2] = in vivo; details: SCID, mouse, in vivo, iv, 4 uCi, total radioactivity, Avg % ID, Heart, 24 hrs
# Description: as §1, §2
# [3] = target: T1, GRP receptors on Swiss 3T3 cells (Mus musculus, UniProt P21729); experiment: Competitive cell binding vs 125I-Tyr4-BBN, Swiss 3T3 cells
# T1 construct: endogenous in cells; host or cells: Swiss 3T3 mouse fibroblasts (whole cells)
# T1 sequence (P21729 whole entry): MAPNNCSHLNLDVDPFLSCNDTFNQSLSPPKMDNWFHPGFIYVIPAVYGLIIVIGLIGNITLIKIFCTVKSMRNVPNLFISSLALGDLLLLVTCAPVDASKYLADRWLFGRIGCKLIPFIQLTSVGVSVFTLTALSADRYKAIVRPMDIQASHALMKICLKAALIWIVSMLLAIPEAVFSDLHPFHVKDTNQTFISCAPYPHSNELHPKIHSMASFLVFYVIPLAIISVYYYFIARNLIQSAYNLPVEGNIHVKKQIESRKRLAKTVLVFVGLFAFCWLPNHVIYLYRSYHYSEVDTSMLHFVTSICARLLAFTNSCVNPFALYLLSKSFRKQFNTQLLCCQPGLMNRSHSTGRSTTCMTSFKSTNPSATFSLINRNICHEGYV
# Description: The binding affinities of the synthetic BBN derivatives were assessed for GRP receptors on Swiss 3T3 cells and, in some cases, on a variety of human cancer cell lines, that express GRP receptors. […] The cell binding assay methods used to measure the IC50's is standard and used techniques previously reported [Jensen et al., 1993; Cai et al., 1994; Cai et al., 1992]. The methods used for determining IC50's for all GRP receptor binding compounds on all cell lines was similar. The specific method used to measure IC50's on Swiss 3T3 cells is briefly described as follows:
# (§3) Swiss 3T3 mouse fibroblasts are grown to confluence in 48 well microtiter plates. […] The growth media was removed, the cells were washed twice with incubation media, and incubation media was returned to the cells. ^125I-Tyr4-BBN (0.01 uCi) was added to each well in the presence of increasing concentrations of the appropriate competitive peptide. Typical concentrations of displacing peptide ranged from 10-12 to 10-5 moles of displacing ligand per well. The cells were incubated at 37° C. for forty minutes in a 95% […]/5% CO2 humidified environment. At forty minutes post initiation of the incubation, the medium was discarded, and the cells were washed twice with cold incubation media. The cells were harvested from the wells following incubation in a trypsin/EDTA solution for five minutes at 37° C. Subsequently, the radioactivity, per well, was determined and the maximum % total uptake of the radiolabeled peptide was determined and normalized to 100%.
# The binding affinities of the synthetic BBN derivatives were assessed for GRP receptors on Swiss 3T3 cells, PC-3 cells and CF PAC-1 cells. The IC50's of each of derivative were determined relative to (i.e., in competition with) ^125I-Tyr^4-BBN. The cell binding assay methods used to measure the IC50's is standard and was used by techniques previously reported [Jensen et al., 1993; Cai et al., 1992; Cai et al., 1994]. The methods used for determining IC50's with all BBN analogue binding to GRP receptors present on all three cell lines were similar. The specific method used to measure IC50's on Swiss 3T3 cells, is briefly described as follows:
# as §3, with “microliter” for “microtiter”, “^125I-Tyr^4-BBN” for “^125I-Tyr4-BBN”, “μCi)” for “uCi)”, “10^−12” for “10-12”, “10^−5” for “10-5”, “100%. A similar procedure was used in performing cell binding assays with both the PC-3 and CFa-PAC-1 human cancer cell lines.” for “100%.”
structure (smiles),measurement,setting,value
CSCC[C@H](NC(=O)[C@H](CC(C)C)NC(=O)[C@H](Cc1cnc[nH]1)NC(=O)CNC(=O)[C@@H](NC(=O)[C@H](C)NC(=O)[C@H](Cc1c[nH]c2ccccc12)NC(=O)[C@H](CCC(N)=O)NC(=O)CCCCCCCNC(=O)CN1CCN(CC(=O)O)CCN(CC(=O)O)CCN(CC(=O)O)CC1)C(C)C)C(N)=O [90Y-DOTA-8-Aoc-BBN[7-14]NH2] [metal not drawn],"Avg % ID, Blood",[1]; 1 hr,0.56 ± 0.20 % ID
same,"Avg % ID, Carcass",[1]; 1 hr,0.62 ± 0.44 % ID
same,"Avg % ID, Kidney",[1]; 1 hr,1.22 ± 0.46 % ID
same,"Avg % ID, L. Intestine",[1]; 1 hr,2.44 ± 0.66 % ID
same,"Avg % ID, Lung",[1]; 1 hr,0.06 ± 0.03 % ID
same,"Avg % ID, Muscle",[1]; 1 hr,0.02 ± 0.02 % ID
same,"Avg % ID, Pancreas",[1]; 1 hr,5.70 ± 1.60 % ID
same,"Avg % ID, S. Intestine",[1]; 1 hr,4.65 ± 0.98 % ID
same,"Avg % ID, Spleen",[1]; 1 hr,0.07 ± 0.04 % ID
same,"Avg % ID, Urine",[1]; 1 hr,57.73 ± 14.52 % ID
same,"Avg % ID/gm, Blood",[1]; 1 hr,0.34 ± 0.12 % ID/gm
same,"Avg % ID/gm, Heart",[1]; 1 hr,0.10 ± 0.11 % ID/gm
same,"Avg % ID/gm, Lung",[1]; 1 hr,0.22 ± 0.12 % ID/gm
same,"Avg % ID/gm, Muscle",[1]; 1 hr,0.15 ± 0.19 % ID/gm
same,"Avg % ID/gm, Pancreas",[1]; 1 hr,24.73 ± 4.97 % ID/gm
same,"Avg % ID/gm, Spleen",[1]; 1 hr,1.09 ± 0.67 % ID/gm
same,"Avg % ID/gm, Stomach",[1]; 1 hr,1.34 ± 0.64 % ID/gm
same,"Avg % ID/gm, Tumor",[1]; 1 hr,2.95±0.99 % ID/gm
same,"Avg % ID, Blood",[1]; 4 hrs,0.09 ± 0.13 % ID
same,"Avg % ID, Carcass",[1]; 4 hrs,0.14 ± 0.11 % ID
same,"Avg % ID, Kidney",[1]; 4 hrs,0.54 ± 0.25 % ID
same,"Avg % ID, L. Intestine",[1]; 4 hrs,3.33 ± 0.71 % ID
same,"Avg % ID, Liver",[1]; 4 hrs,0.19 ± 0.13 % ID
same,"Avg % ID, Pancreas",[1]; 4 hrs,3.42 ± 0.82 % ID
same,"Avg % ID, S. Intestine",[1]; 4 hrs,2.06 ± 1.27 % ID
same,"Avg % ID, Spleen",[1]; 4 hrs,0.02 ± 0.03 % ID
same,"Avg % ID, Stomach",[1]; 4 hrs,0.18 ± 0.06 % ID
same,"Avg % ID, Tumor",[1]; 4 hrs,0.34 ± 0.22 % ID
same,"Avg % ID, Urine",[1]; 4 hrs,67.02 ± 16.74 % ID
same,"Avg % ID/gm, Blood",[1]; 4 hrs,0.05 ± 0.07 % ID/gm
same,"Avg % ID/gm, Heart",[1]; 4 hrs,0.10 ± 0.14 % ID/gm
same,"Avg % ID/gm, Kidney",[1]; 4 hrs,1.68 ± 0.76 % ID/gm
same,"Avg % ID/gm, L. Intestine",[1]; 4 hrs,5.17 ± 1.85 % ID/gm
same,"Avg % ID/gm, Liver",[1]; 4 hrs,0.18 ± 0.12 % ID/gm
same,"Avg % ID/gm, Lung",[1]; 4 hrs,0.07 ± 0.07 % ID/gm
same,"Avg % ID/gm, Muscle",[1]; 4 hrs,0.07 ± 0.13 % ID/gm
same,"Avg % ID/gm, Pancreas",[1]; 4 hrs,14.02 ± 4.89 % ID/gm
same,"Avg % ID/gm, S. Intestine",[1]; 4 hrs,1.66 ± 0.91 % ID/gm
same,"Avg % ID/gm, Stomach",[1]; 4 hrs,0.55 ± 0.16 % ID/gm
same,"Avg % ID/gm, Tumor",[1]; 4 hrs,1.98±0.66 % ID/gm
same,"Avg % ID, Blood",[1]; 24 hrs,0.12 ± 0.14 % ID
same,"Avg % ID, Feces",[1]; 24 hrs,10.71 ± 8.29 % ID
same,"Avg % ID, Heart",[1]; 24 hrs,0.00 ± 0.00 % ID
same,"Avg % ID, Kidney",[1]; 24 hrs,0.17 ± 0.09 % ID
same,"Avg % ID, L. Intestine",[1]; 24 hrs,1.11 ± 0.75 % ID
same,"Avg % ID, Liver",[1]; 24 hrs,0.10 ± 0.03 % ID
same,"Avg % ID, Lung",[1]; 24 hrs,0.00 ± 0.00 % ID
same,"Avg % ID, Muscle",[1]; 24 hrs,0.00 ± 0.01 % ID
same,"Avg % ID, S. Intestine",[1]; 24 hrs,0.51 ± 0.20 % ID
same,"Avg % ID, Tumor",[1]; 24 hrs,0.16 ± 0.09 % ID
same,"Avg % ID, Urine",[1]; 24 hrs,67.62 ± 17.26 % ID
same,"Avg % ID/gm, Blood",[1]; 24 hrs,0.07 ± 0.08 % ID/gm
same,"Avg % ID/gm, Heart",[1]; 24 hrs,0.00 ± 0.00 % ID/gm
same,"Avg % ID/gm, Kidney",[1]; 24 hrs,0.51 ± 0.25 % ID/gm
same,"Avg % ID/gm, L. Intestine",[1]; 24 hrs,1.27 ± 0.92 % ID/gm
same,"Avg % ID/gm, Liver",[1]; 24 hrs,0.08 ± 0.03 % ID/gm
same,"Avg % ID/gm, Lung",[1]; 24 hrs,0.01 ± 0.02 % ID/gm
same,"Avg % ID/gm, Muscle",[1]; 24 hrs,0.02 ± 0.03 % ID/gm
same,"Avg % ID/gm, Pancreas",[1]; 24 hrs,1.80 ± 0.57 % ID/gm
same,"Avg % ID/gm, Spleen",[1]; 24 hrs,0.11 ± 0.13 % ID/gm
same,"Avg % ID/gm, Stomach",[1]; 24 hrs,0.09 ± 0.07 % ID/gm
same,"Avg % ID/gm, Tumor",[1]; 24 hrs,1.08±0.37 % ID/gm
same,"Avg % ID, Blood",[1]; 48 hrs,0.10 ± 0.14 % ID
same,"Avg % ID, Carcass",[1]; 48 hrs,0.11 ± 0.17 % ID
same,"Avg % ID, Heart",[1]; 48 hrs,0.02 ± 0.02 % ID
same,"Avg % ID, Kidney",[1]; 48 hrs,0.10 ± 0.04 % ID
same,"Avg % ID, Pancreas",[1]; 48 hrs,0.15 ± 0.04 % ID
same,"Avg % ID, S. Intestine",[1]; 48 hrs,0.16 ± 0.06 % ID
same,"Avg % ID, Tumor",[1]; 48 hrs,0.11 ± 0.07 % ID
same,"Avg % ID, Urine",[1]; 48 hrs,76.74 ± 21.06 % ID
same,"Avg % ID/gm, Blood",[1]; 48 hrs,0.06 ± 0.08 % ID/gm
same,"Avg % ID/gm, Heart",[1]; 48 hrs,0.14 ± 0.19 % ID/gm
same,"Avg % ID/gm, Kidney",[1]; 48 hrs,0.29 ± 0.12 % ID/gm
same,"Avg % ID/gm, L. Intestine",[1]; 48 hrs,0.77 ± 0.15 % ID/gm
same,"Avg % ID/gm, Muscle",[1]; 48 hrs,0.07 ± 0.13 % ID/gm
same,"Avg % ID/gm, Pancreas",[1]; 48 hrs,0.59 ± 0.14 % ID/gm
same,"Avg % ID/gm, S. Intestine",[1]; 48 hrs,0.13 ± 0.04 % ID/gm
same,"Avg % ID/gm, Spleen",[1]; 48 hrs,0.09 ± 0.24 % ID/gm
same,"Avg % ID/gm, Tumor",[1]; 48 hrs,0.58 ± 0.30 % ID/gm
same,"Avg % ID, Blood",[1]; 72 hrs,0.11 ± 0.15 % ID
same,"Avg % ID, Carcass",[1]; 72 hrs,0.10 ± 0.11 % ID
same,"Avg % ID, Kidney",[1]; 72 hrs,0.13 ± 0.07 % ID
same,"Avg % ID, Liver",[1]; 72 hrs,0.08 ± 0.11 % ID
same,"Avg % ID, Lung",[1]; 72 hrs,0.00 ± 0.01 % ID
same,"Avg % ID, Pancreas",[1]; 72 hrs,0.08 ± 0.05 % ID
same,"Avg % ID, S. Intestine",[1]; 72 hrs,0.11 ± 0.07 % ID
same,"Avg % ID, Spleen",[1]; 72 hrs,0.02 ± 0.01 % ID
same,"Avg % ID, Tumor",[1]; 72 hrs,0.06 ± 0.06 % ID
same,"Avg % ID, Urine",[1]; 72 hrs,82.97 ± 25.39 % ID
same,"Avg % ID/gm, Blood",[1]; 72 hrs,0.06 ± 0.09 % ID/gm
same,"Avg % ID/gm, Kidney",[1]; 72 hrs,0.43 ± 0.29 % ID/gm
same,"Avg % ID/gm, L. Intestine",[1]; 72 hrs,0.47 ± 0.24 % ID/gm
same,"Avg % ID/gm, Liver",[1]; 72 hrs,0.08 ± 0.11 % ID/gm
same,"Avg % ID/gm, Lung",[1]; 72 hrs,0.02 ± 0.03 % ID/gm
same,"Avg % ID/gm, Muscle",[1]; 72 hrs,0.08 ± 0.19 % ID/gm
same,"Avg % ID/gm, Pancreas",[1]; 72 hrs,0.27 ± 0.17 % ID/gm
same,"Avg % ID/gm, S. Intestine",[1]; 72 hrs,0.08 ± 0.05 % ID/gm
same,"Avg % ID/gm, Spleen",[1]; 72 hrs,0.28 ± 0.26 % ID/gm
same,"Avg % ID/gm, Stomach",[1]; 72 hrs,0.07 ± 0.03 % ID/gm
same,"Avg % ID/gm, Tumor",[1]; 72 hrs,0.46 ± 0.48 % ID/gm
"CSCC[C@H](NC(=O)[C@H](CC(C)C)NC(=O)[C@H](Cc1cnc[nH]1)NC(=O)CNC(=O)[C@@H](NC(=O)[C@H](C)NC(=O)[C@H](Cc1c[nH]c2ccccc12)NC(=O)[C@H](CCC(N)=O)NC(=O)CCCCCCCNC(=O)CN1CCN(CC(=O)O)CCN(CC(=O)O)CCN(CC(=O)O)CC1)C(C)C)C(N)=O [177Lu-DOTA-8-Aoc-BBN[7-14]NH2, metal not drawn]",tissue uptake dose at 24 h,[2],0.01 %ID
CSCC[C@H](NC(=O)[C@H](CC(C)C)NC(=O)[C@H](Cc1c[nH]cn1)NC(=O)CNC(=O)[C@@H](NC(=O)[C@H](C)NC(=O)[C@H](Cc1c[nH]c2ccccc12)NC(=O)[C@H](CCC(N)=O)NC(=O)CCCCNC(=O)COC1CSCCCSCCCSCCCSC1)C(C)C)C(N)=O [BBN-37],IC50,[3],1.79 ± 0.09 nM
